{
  "source": "patent US20260125451A1",
  "about": "(JIANGSU HENGRUI PHARMACEUTICALS, published 2026)",
  "binders": {"B1": {"name": "B746201 (other)", "heavy": "EVQLVQSGAEVKKPGESLKISCKGSGYIFTNYWIAWVRQMPGKGLESMGIIYPGDSDIRYSPSFQGQVTISADKSITTAYLQWSSLKASDTAMYYCARHDIEGFDYWGRGTLVTVSSASTKGPSVFPLAPSSKSTSGGTAALGCLVKDYFPEPVTVSWNSGALTSGVHTFPAVLQSSGLYSLSSVVTVPSSSLGTQTYICNVNHKPSNTKVDKRVEPKSCDKTHTCPPCPAPEFEGGPSVFLFPPKPKDTLMISRTPEVTCVVVDVSHEDPEVKFNWYVDGVEVHNAKTKPREEQYNSTYRVVSVLTVLHQDWLNGKEYKCKVSNKALPASIEKTISKAKGQPREPQVYTLPPSRDELTKNQVSLTCLVKGFYPSDIAVEWESNGQPENNYKTTPPVLDSDGSFFLYSKLTVDKSRWQQGNVFSCSVMHEALHNHYTQKSLSLSPGKGGGGSGGGGSGGGGSMLQMAGQCSQNEYFDSLLHACIPCQLRCSSNTPPLTCQRYCSTSCREEQGEFYDHLLRDCISCASICGQHPKQCAAFCE", "light": "EIVLTQSPGTLSLSPGERATLSCRASQSVSSSFFAWYQQKPGQAPRLLIYGASSRATGIPDRLSGSGSGTDFTLTITRLEPEDFAVYYCQQYDSSAITFGQGTRLEIKRTVAAPSVFIFPPSDEQLKSGTASVVCLLNNFYPREAKVQWKVDNALQSGNSQESVTEQDSKDSTYSLSSTLTLSKADYEKHKVYACEVTHQGLSSPVTKSFNRGEC", "notes": "Fusion protein of anifrolumab, TACI-19-16 and BCMA-ECD-2"}, "B2": {"name": "B805201 (other)", "heavy": "EVQLVQSGAEVKKPGESLKISCKGSGYIFTNYWIAWVRQMPGKGLESMGIIYPGDSDIRYSPSFQGQVTISADKSITTAYLQWSSLKASDTAMYYCARHDIEGFDYWGRGTLVTVSSASTKGPSVFPLAPSSKSTSGGTAALGCLVKDYFPEPVTVSWNSGALTSGVHTFPAVLQSSGLYSLSSVVTVPSSSLGTQTYICNVNHKPSNTKVDKRVEPKSCDKTHTCPPCPAPEFEGGPSVFLFPPKPKDTLMISRTPEVTCVVVDVSHEDPEVKFNWYVDGVEVHNAKTKPREEQYNSTYRVVSVLTVLHQDWLNGKEYKCKVSNKALPASIEKTISKAKGQPREPQVYTLPPSRDELTKNQVSLTCLVKGFYPSDIAVEWESNGQPENNYKTTPPVLDSDGSFFLYSKLTVDKSRWQQGNVFSCSVMHEALHNHYTQKSLSLSPGKGGGGSGGGGSGGGGSSTSCREEQGEFYDHLLRDCISCASICGQHPKQCAAFCE", "light": "B1 light", "notes": "Anifrolumab with TACI-19-16 at the C-terminus of the heavy chain; also called B80521"}},
  "key": {"[1]": {"biological_target": "T1, type I interferon (IFN) receptor subunit 1 (IFNAR1) (human, UniProt P17181 28-557)", "T1 sequence (looked up)": "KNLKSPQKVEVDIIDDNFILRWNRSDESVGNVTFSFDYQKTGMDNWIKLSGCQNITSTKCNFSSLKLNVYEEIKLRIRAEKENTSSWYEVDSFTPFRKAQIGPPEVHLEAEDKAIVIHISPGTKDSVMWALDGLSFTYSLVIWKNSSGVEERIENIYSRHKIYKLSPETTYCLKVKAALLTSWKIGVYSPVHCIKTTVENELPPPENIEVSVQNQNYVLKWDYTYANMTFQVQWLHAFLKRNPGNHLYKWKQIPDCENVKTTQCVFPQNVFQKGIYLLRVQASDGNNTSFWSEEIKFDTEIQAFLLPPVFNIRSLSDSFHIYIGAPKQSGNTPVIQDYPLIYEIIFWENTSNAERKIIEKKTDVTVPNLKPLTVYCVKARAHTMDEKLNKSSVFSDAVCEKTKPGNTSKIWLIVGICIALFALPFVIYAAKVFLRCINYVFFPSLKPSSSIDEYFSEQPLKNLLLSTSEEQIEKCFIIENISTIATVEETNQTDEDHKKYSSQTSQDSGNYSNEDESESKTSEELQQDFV", "assay": "cell-based or functional assay"}, "[2]": {"biological_target": "T1, type I interferon (IFN) receptor …", "assay": "cell-based or functional assay", "remark": "listed apart in the source"}, "[3]": {"biological_target": "T2, APRIL (Acro Biosystems, Cat: APL-H52D1) (UniProt O75888 115-250, limits assumed)", "T2 construct": "also called ARPIL; A proliferation-inducing ligand", "T2 sequence (looked up)": "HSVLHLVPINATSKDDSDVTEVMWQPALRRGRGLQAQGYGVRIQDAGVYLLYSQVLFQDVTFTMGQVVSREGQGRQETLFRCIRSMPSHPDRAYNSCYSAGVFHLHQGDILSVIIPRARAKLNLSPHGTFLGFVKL", "assay": "ELISA, APRIL coated, anti-human Fc-HRP"}, "[4]": {"biological_target": "T2, APRIL (Acro Biosystems, Cat: APL-H52D1)", "assay": "ELISA, APRIL coated, anti-human Fc-HRP, OD450", "protocol": "The capabilities of fusion proteins B606401, B637302, B746201, and B805201 to bind to BAFF and APRIL were assessed by ELISA as follows:\nBAFF (PeproTech, Cat: 310-13) or ARPIL (Acro Biosystems, Cat: APL-H52D1) was diluted to 1 μg/mL with PBS, and a 96-well plate was coated with the dilution overnight at 4° C. The plate was washed with PBST and blocked with Blocking Buffer (PBST containing 1% BSA) at 37° C. for 1 h. The plate was tapped. The test antibodies were diluted with Blocking Buffer. Incubation was performed at 37° C. for 1.5 h. The plate was washed with PBST. An HRP-mouse anti-human Fc antibody (GenScript, Cat: A01854-200) was diluted with Blocking Buffer. Incubation was performed at 37° C. for 40 min. The plate was washed with PBST. 100 μL of TMB substrate solution (Biopanda, Cat: TMB-S-003) was added, and color development was performed at 37° C. for 3 min. 100 μL of ELISA stop solution (Solarbio, Cat: C1058) was added. OD450 was measured.\nThe EC₅₀ value for the capability of B637302 to bind to APRIL decreased to 1/7 to ⅙ of that of telitacicept."}, "[5]": {"biological_target": "recombinant human BAFF (R&D cat: 7537-BF-025/CF) (human, UniProt Q9Y275 134-285, limits assumed)", "sequence (Q9Y275 134-285 limits assumed)": "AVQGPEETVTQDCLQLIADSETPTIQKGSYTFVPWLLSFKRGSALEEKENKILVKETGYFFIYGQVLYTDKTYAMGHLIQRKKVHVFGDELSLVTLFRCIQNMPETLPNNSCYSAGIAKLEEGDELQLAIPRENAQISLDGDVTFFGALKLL", "assay": "cell-based or functional assay"}},
  "data": [
    {"binder": "B1", "values": [
      {"measurement": "IC50, inhibition of IFN-α-induced in vitro differentiation of B cells into plasma cells", "setting": "[1]", "value": 1.9, "unit": "nM"},
      {"measurement": "IC50 (nM), inhibition of the activity of type I interferons (IFN-β, HEK-Blue IFN-α/β cells)", "setting": "[2]", "value": 1.64, "unit": "nM"},
      {"measurement": "EC50 relative to that of telitacicept", "setting": "[3]", "value": 0.333, "unit": "ratio"},
      {"measurement": "Emax", "setting": "[4]", "value": 2.8, "unit": "nM"}
    ]},
    {"binder": "B2", "values": [
      {"measurement": "IC50, inhibition of IFN-α-induced in vitro differentiation of B cells into plasma cells", "setting": "[1]", "value": 6.21, "unit": "nM"},
      {"measurement": "IC50 (nM), inhibition of the activity of type I interferons (IFN-β, HEK-Blue IFN-α/β cells)", "setting": "[2]", "value": 1.63, "unit": "nM"},
      {"measurement": "EC50 relative to that of telitacicept", "setting": "[3]", "value": 0.333, "unit": "ratio"},
      {"measurement": "Flow cytometry proliferating B cell proportion (%), mean, BAFF-induced, drug at 10 nM", "setting": "[5]", "value": 20.4, "unit": "%"},
      {"measurement": "Flow cytometry proliferating B cell proportion (%), mean, BAFF-induced, drug at 100 nM", "setting": "[5]", "value": 24.3, "unit": "%"},
      {"measurement": "Flow cytometry proliferating B cell proportion (%), mean, BAFF-induced, drug at 1000 nM", "setting": "[5]", "value": 15, "unit": "%"},
      {"measurement": "Emax", "setting": "[4]", "value": 2.85, "unit": "nM"}
    ]}
  ]
}
